Laboratory results: IntAct's records for PubMed 20477991

B1: Phospholipid-transporting ATPase NEO1 (Saccharomyces cerevisiae), P40527 (parent)
chain: MPNPPSFKSHKQNLFNSNNNQHANSVDSFDLHLDDSFDAALDSLQINNNPEPLSKHNTVGDRESFEMRTVDDLDNFSNHSSDSHRKSSNTDTHPLMYDNRLSQDDNFKFTNIASSPPSSSNNIFSKALSYLKVSNTKNWSKFGSPIELSDQHIEREIHPDTTPVYDRNRYVSNELSNAKYNAVTFVPTLLYEQFKFFYNLYFLVVALSQAVPALRIGYLSSYIVPLAFVLTVTMAKEAIDDIQRRRRDRESNNELYHVITRNRSIPSKDLKVGDLIKVHKGDRIPADLVLLQSSEPSGESFIKTDQLDGETDWKLRVACPLTQNLSENDLINRISITASAPEKSIHKFLGKVTYKDSTSNPLSVDNTLWANTVLASSGFCIACVVYTGRDTRQAMNTTTAKVKTGLLELEINSISKILCACVFALSILLVAFAGFHNDDWYIDILRYLILFSTIIPVSLRVNLDLAKSVYAHQIEHDKTIPETIVRTSTIPEDLGRIEYLLSDKTGTLTQNDMQLKKIHLGTVSYTSETLDIVSDYVQSLVSSKNDSLNNSKVALSTTRKDMSFRVRDMILTLAICHNVTPTFEDDELTYQAASPDEIAIVKFTESVGLSLFKRDRHSISLLHEHSGKTLNYEILQVFPFNSDSKRMGIIVRDEQLDEYWFMQKGADTVMSKIVESNDWLEEETGNMAREGLRTLVIGRKKLNKKIYEQFQKEYNDASLSMLNRDQQMSQVITKYLEHDLELLGLTGVEDKLQKDVKSSIELLRNAGIKIWMLTGDKVETARCVSISAKLISRGQYVHTITKVTRPEGAFNQLEYLKINRNACLLIDGESLGMFLKHYEQEFFDVVVHLPTVIACRCTPQQKADVALVIRKMTGKRVCCIGDGGNDVSMIQCADVGVGIVGKEGKQASLAADFSITQFCHLTELLLWHGRNSYKRSAKLAQFVMHRGLIIAICQAVYSICSLFEPIALYQGWLMVGYATCYTMAPVFSLTLDHDIEESLTKIYPELYKELTEGKSLSYKTFFVWVLLSLFQGSVIQLFSQAFTSLLDTDFTRMVAISFTALVVNELIMVALEIYTWNKTMLVTEIATLLFYIVSVPFLGDYFDLGYMTTVNYYAGLLVILLISIFPVWTAKAIYRRLHPPSYAKVQEFATP

Variants of: B1
Details: with dop1_yeast DOP1, Q03921
Chain of dop1_yeast DOP1, Q03921 (Q03921 whole entry): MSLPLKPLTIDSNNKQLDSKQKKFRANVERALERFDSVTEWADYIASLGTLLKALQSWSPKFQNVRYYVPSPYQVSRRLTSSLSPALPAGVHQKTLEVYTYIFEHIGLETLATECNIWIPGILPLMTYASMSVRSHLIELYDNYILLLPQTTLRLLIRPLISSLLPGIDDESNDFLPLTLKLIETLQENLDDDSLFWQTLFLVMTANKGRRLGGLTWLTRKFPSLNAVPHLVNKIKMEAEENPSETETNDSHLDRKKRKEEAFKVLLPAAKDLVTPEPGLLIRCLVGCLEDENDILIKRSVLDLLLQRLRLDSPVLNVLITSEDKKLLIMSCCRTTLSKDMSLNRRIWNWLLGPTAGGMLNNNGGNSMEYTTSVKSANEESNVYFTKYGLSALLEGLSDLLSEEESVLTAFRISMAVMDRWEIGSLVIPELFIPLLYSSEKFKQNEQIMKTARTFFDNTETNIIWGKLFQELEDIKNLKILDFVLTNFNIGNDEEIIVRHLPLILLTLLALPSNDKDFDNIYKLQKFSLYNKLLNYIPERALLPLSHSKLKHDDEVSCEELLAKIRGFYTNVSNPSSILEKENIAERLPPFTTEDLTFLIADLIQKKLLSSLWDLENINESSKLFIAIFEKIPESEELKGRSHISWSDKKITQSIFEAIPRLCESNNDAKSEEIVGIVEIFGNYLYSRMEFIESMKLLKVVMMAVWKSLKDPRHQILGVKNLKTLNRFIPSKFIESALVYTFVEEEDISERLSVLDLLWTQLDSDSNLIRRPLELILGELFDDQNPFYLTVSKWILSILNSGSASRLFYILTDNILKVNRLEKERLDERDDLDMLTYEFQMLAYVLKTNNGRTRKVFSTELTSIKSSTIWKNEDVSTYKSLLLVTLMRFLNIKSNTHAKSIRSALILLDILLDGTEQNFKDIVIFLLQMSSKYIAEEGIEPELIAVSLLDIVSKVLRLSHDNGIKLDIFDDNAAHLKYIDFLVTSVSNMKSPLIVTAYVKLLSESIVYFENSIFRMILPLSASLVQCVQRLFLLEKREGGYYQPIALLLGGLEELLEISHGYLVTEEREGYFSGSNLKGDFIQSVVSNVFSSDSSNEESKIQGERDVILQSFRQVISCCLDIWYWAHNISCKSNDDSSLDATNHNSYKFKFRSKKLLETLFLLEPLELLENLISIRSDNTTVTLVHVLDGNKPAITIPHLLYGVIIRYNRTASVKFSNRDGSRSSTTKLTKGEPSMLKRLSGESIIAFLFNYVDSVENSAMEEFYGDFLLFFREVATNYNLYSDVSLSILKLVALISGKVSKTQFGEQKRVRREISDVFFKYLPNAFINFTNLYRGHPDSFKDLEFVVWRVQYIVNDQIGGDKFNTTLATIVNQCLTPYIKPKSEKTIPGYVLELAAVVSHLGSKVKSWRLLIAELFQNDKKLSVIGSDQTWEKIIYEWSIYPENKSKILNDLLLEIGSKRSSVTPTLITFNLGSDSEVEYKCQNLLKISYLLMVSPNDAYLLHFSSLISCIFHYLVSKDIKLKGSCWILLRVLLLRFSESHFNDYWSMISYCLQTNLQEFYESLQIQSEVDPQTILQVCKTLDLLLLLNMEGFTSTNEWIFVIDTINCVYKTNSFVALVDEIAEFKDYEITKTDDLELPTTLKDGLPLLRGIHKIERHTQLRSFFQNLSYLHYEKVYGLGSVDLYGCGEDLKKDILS
With I284T;I449M;E605G;L680P;Y714H the “effect of a mutation on the interaction” value was “with no effect”.
With F301S;D305G;V373A;S539P;L540P;N631S;Q655R;V748A the “effect of a mutation on the interaction” value was “decreasing interaction strength”.
